Data on 33 molecules can be found in article PMC10786891, “Massively parallel profiling of RNA-targeting CRISPR-Cas13d”.

The labels stand for the following.
T1: EsCas13d, nuclease-dead (Eubacterium siraeum, UniProt B0MS50, R295A;H300A;R849A;H854A)
T1 sequence: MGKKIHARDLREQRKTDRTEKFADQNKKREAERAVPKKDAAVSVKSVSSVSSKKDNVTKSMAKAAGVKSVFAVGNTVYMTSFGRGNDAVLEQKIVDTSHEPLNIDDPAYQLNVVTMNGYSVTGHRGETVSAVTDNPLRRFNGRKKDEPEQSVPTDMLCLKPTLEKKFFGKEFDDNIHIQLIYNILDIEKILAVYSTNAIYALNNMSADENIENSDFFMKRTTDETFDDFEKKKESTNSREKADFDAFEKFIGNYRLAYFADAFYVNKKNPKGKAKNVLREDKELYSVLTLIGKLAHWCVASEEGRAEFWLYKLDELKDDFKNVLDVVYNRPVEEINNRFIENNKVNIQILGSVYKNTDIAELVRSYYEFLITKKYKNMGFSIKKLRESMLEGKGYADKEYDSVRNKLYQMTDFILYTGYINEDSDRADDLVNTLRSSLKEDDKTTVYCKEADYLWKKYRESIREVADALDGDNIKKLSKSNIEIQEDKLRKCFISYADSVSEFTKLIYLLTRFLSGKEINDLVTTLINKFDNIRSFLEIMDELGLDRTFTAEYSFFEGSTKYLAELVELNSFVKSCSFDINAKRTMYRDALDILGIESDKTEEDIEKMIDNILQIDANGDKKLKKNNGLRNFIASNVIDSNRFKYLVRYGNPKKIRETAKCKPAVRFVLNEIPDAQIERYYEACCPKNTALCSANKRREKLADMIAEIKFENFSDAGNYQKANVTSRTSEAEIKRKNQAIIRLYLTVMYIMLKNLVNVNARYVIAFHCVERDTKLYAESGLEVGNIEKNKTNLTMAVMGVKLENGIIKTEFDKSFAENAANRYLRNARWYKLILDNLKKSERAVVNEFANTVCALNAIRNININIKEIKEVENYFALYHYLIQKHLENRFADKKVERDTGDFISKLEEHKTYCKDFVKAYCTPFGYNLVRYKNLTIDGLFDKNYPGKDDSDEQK

B1: target 1 C4U (mixed)
RNA 1: CACCCGUGCAAAAAUGCAGGGGUCUAAAACUGAGCGGAUAACCUCUCUAUGG
RNA 2: GGGAAUGGAUCCACAUCUACGAAUUCGUACCAUAGAGAGGUUAUCCGUUCACCGAGAUCGGAAGAGCACACGU
B2: target 1 A1U,A20U (mixed)
RNA 1: B1 RNA 1
RNA 2: B1 RNA 2 with A32U, U48C, A51U
B3: target 1 insA 3' of 19,insU 3' of 17 (mixed)
RNA 1: B1 RNA 1
RNA 2: GGGAAUGGAUCCACAUCUACGAAUUCGUACCAUAAGUAGAGGUUAUCCGCUCACCGAGAUCGGAAGAGCACACGU
B4: target 1 C2U,C21U (mixed)
RNA 1: B1 RNA 1
RNA 2: B1 RNA 2 with C31U, U48C, C50U
B5: target 1 G17C,C22U (mixed)
RNA 1: B1 RNA 1
RNA 2: B1 RNA 2 with C30U, G35C, U48C
B6: target 1 U11G,G12A (mixed)
RNA 1: B1 RNA 1
RNA 2: B1 RNA 2 with G40A, U41G, U48C
B7: target 1 insC 3' of 5,insU 3' of 5 (mixed)
RNA 1: B1 RNA 1
RNA 2: GGGAAUGGAUCCACAUCUACGAAUUCGUACCAUAGAGAGGUUAUCCGCUCUCACCGAGAUCGGAAGAGCACACGU
B8: target 1 G17A,U19A (mixed)
RNA 1: B1 RNA 1
RNA 2: B1 RNA 2 with U33A, G35A, U48C
B9: target 1 A1G,G15A (mixed)
RNA 1: B1 RNA 1
RNA 2: B1 RNA 2 with G37A, U48C, A51G
B10: target 1 insC 3' of 22,insA 3' of 8 (mixed)
RNA 1: B1 RNA 1
RNA 2: GGGAAUGGAUCCACAUCUACGAAUUCGUACCCAUAGAGAGGUUAUACCGCUCACCGAGAUCGGAAGAGCACACGU
B11: target 1 del2,del16 (mixed)
RNA 1: B1 RNA 1
RNA 2: GGGAAUGGAUCCACAUCUACGAAUUCGUACCAUAGGAGGUUAUCCGCUACCGAGAUCGGAAGAGCACACGU
B12: target 1 C2U,U11A (mixed)
RNA 1: B1 RNA 1
RNA 2: B1 RNA 2 with U41A, U48C, C50U
B13: target 1 insA 3' of 8,insC 3' of 8 (mixed)
RNA 1: B1 RNA 1
RNA 2: B7 RNA 2 with C45A, G47C, U49G
B14: target 1 C2U (mixed)
RNA 1: B1 RNA 1
RNA 2: B1 RNA 2 with U48C, C50U
B15: target 1 A1U,G15A (mixed)
RNA 1: B1 RNA 1
RNA 2: B1 RNA 2 with G37A, U48C, A51U
B16: target 1 insU 3' of 17,insG 3' of 16 (mixed)
RNA 1: B1 RNA 1
RNA 2: B3 RNA 2 with A35G, G36U, U37A, A38G
B17: target 1 A1U,C2U (mixed)
RNA 1: B1 RNA 1
RNA 2: B1 RNA 2 with U48C, C50U, A51U
B18: target 1 U8G,U11A (mixed)
RNA 1: B1 RNA 1
RNA 2: B1 RNA 2 with U41A, U44G, U48C
B19: target 1 insA 3' of 21,insU 3' of 4 (mixed)
RNA 1: B1 RNA 1
RNA 2: B10 RNA 2 with C32A, A46C, C48G, G49C, C50U
B20: target 1 A20U (mixed)
RNA 1: B1 RNA 1
RNA 2: B1 RNA 2 with A32U, U48C
B21: target 1 U8C,G15A (mixed)
RNA 1: B1 RNA 1
RNA 2: B1 RNA 2 with G37A, U44C, U48C
B22: target 1 C7A,G17U (mixed)
RNA 1: B1 RNA 1
RNA 2: B1 RNA 2 with G35U, C45A, U48C
B23: target 1 insC 3' of 14,insA 3' of 10 (mixed)
RNA 1: B1 RNA 1
RNA 2: B3 RNA 2 with A35G, G36A, U37G, G39C, A40G, G42U, U44A
B24: target 1 U8C,A9C (mixed)
RNA 1: B1 RNA 1
RNA 2: B1 RNA 2 with A43C, U44C, U48C
B25: target 1 insC 3' of 13,insC 3' of 13 (mixed)
RNA 1: B1 RNA 1
RNA 2: B3 RNA 2 with A35G, G36A, U37G, A40C, G41C
B26: target 1 insU 3' of 9,insG 3' of 2 (mixed)
RNA 1: B1 RNA 1
RNA 2: B7 RNA 2 with C45U, G47C, C48G, U49C, C50U, U51C, C52G
B27: target 1 C6U,U8A (mixed)
RNA 1: B1 RNA 1
RNA 2: B1 RNA 2 with U44A, C46U, U48C
B28: target 1 A1G,C2U (mixed)
RNA 1: B1 RNA 1
RNA 2: B1 RNA 2 with U48C, C50U, A51G
B29: target 1 insC 3' of 10,insA 3' of 6 (mixed)
RNA 1: B1 RNA 1
RNA 2: B7 RNA 2 with A43C, U44A, C45U, G47C, C48A, U49G
B30: target 1 insA 3' of 13,insG 3' of 9 (mixed)
RNA 1: B1 RNA 1
RNA 2: B3 RNA 2 with A35G, G36A, U37G, G42U, U44A, A45G
B31: target 1 insC 3' of 9,insA 3' of 8 (mixed)
RNA 1: B1 RNA 1
RNA 2: B7 RNA 2 with U44C, C45U, C46A, G47C, U49G
B32: target 1 insG 3' of 16,insC 3' of 8 (mixed)
RNA 1: B1 RNA 1
RNA 2: B10 RNA 2 with C32A, A33U, U34A, A35G, G36A, A37G, A46C
B33: target 1 C4A,A16C (mixed)
RNA 1: B1 RNA 1
RNA 2: B1 RNA 2 with A36C, U48A

As usually defined, the Kd is the constant that tells how readily two partners part at equilibrium.

Numbering of substitutions follows the chain as printed. Numbers in names are those of the source.

In this data set the target is T1, EsCas13d, nuclease-dead. Kind of data set: crRNA (strand 1, pre-loaded); Mg2+; 40 mM Tris-HCl pH 7.5, 150 mM NaCl, 6 mM MgCl2, 1 mM DTT, 0.1% Tween-20, 0.2 mg/ml BSA; 25 C; 10 min per concentration, then washed. To be noted: tags: His6-TwinStrep-SUMO cleaved; N-terminal SNAP kept (SNAP-Surface 488); label: 3' end held by stalled T7 RNA polymerase.
Molecule B1 yielded a Kd of 30 ± 4 nM.
Then B2, with 35.1 ± 1.9 nM.
For the molecule B3, the Kd was approximately 38 nM.
The value for B4 was 8.2 ± 0.8 nM; that for B5 was 62 ± 11 nM.
Then B6, with 4.27 ± 0.21 nM; and B7, with 9.3 ± 0.5 nM.
For B8, the Kd was 54 ± 8 nM.
The value for B9 was 11.1 ± 0.5 nM.
The value for B10 was 31.4 ± 2.8 nM; that for B11 was 82 ± 18 nM.
Then B12, with 29.5 ± 3.5 nM; and B13, with 13.2 ± 0.6 nM.
Molecule B14 came in with a Kd of 9.7 ± 0.7 nM.
The value for B15 was 11.2 ± 0.7 nM; that for B16 was 44 ± 5 nM; that for B17 was 9.6 ± 0.5 nM.
Then B18, with 27.6 ± 2.2 nM.
B19 registered a Kd of 12.5 ± 1 nM.
Then B20, with 50 ± 5 nM; and B21, with 26.8 ± 2.1 nM.
B22 yielded a Kd of 34 ± 6 nM.
B23: binding was characterised by a dissociation constant (Kd) of 55 ± 8 nM.
Then B24, with 30.5 ± 2.7 nM.
The value for B25 was 35 ± 5 nM.
With B26, the dissociation constant Kd was found to be 24.6 ± 3.2 nM.
Consider B27, for which the Kd is 15.1 ± 0.5 nM.
The value for B28 was 8.7 ± 0.7 nM; that for B29 was 25.5 ± 2.5 nM.
The value for B30 was 6.9 ± 0.5 nM; that for B31 was 8.8 ± 0.5 nM; that for B32 was 24.3 ± 2 nM.
Then B33, with 49 ± 11 nM.
